Measured values published in US20200010567A1 (NEURIMMUNE, published 2020).

Assays:
GP10: H-(GP)10HHHHHH-NH2 = target: T1, GP10: H-(GP)10HHHHHH-NH2 (C-terminal amide); experiment: indirect ELISA, coated His-tagged peptide; indirect ELISA, peptide coated directly on the plate
T1 peptide: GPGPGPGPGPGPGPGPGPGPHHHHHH
From the text: (§1) In brief, dipeptide repeat proteins were synthesized and purified by Schafer-N (Copenhagen, Denmark): GA₂₀: H-(GA)₂₀HHHHHH-NH₂; GA₁₀: H-(GA)₁₀HHHHHH-NH₂; GA₆: H-(GA)₆HHHHHH-NH₂; GA₅: H-(GA)₅HHHHHH-NH₂; GA₄: H-(GA)₄HHHHHH-NH₂; GA₃: H-(GA)₃HHHHHH-NH₂; GA₂: H-(GA)₂HHHHHH-NH₂; GP₂₀: H-(GP)₂₀HHHHHH-NH₂; GP₁₀: H-(GP)₁₀HHHHHH-NH₂; GP₆: H-(GP)₆HHHHHH-NH₂; GP₅: H-(GP)₅HHHHHH-NH₂; GP₄: H-(GP)₄HHHHHH-NH₂; GP₃: H-(GP)₃HHHHHH-NH₂; GP₂: H-(GP)₂HHHHHH-NH₂. GR₂₀: H-(GR)₂₀HHHHHH-NH₂; GR₁₀: H-(GR)₁₀HHHHHH-NH₂; GR₆: H-(GR)₆HHHHHH-NH₂; GR₅: H-(GR)₅HHHHHH-NH₂; GR₄: H-(GR)₄HHHHHH-NH₂; GR₃: H-(GR)₃HHHHHH-NH₂; GR₂: H-(GR)₂HHHHHH-NH₂; PA₂₀: H-(PA)₂₀HHHHHH-NH₂; PA₁₀: H-(PA)₁₀HHHHHH-NH₂; PA₆: H-(PA)₆HHHHHH-NH₂; PA₅: H-(PA)₅HHHHHH-NH₂; PA₄: H-(PA)₄HHHHHH-NH₂; PA₃: H-(PA)₃HHHHHH-NH₂; PA₂: H-(PA)₂HHHHHH-NH₂; PR₂₀: H-(PR)₂₀HHHHHH-NH₂; PR₁₀: H-(PR)₁₀HHHHHH-NH₂; PR₆: H-(PR)₆HHHHHH-NH₂; PR₅: H-(PR)₅HHHHHH-NH₂; PR₄: H-(PR)₄HHHHHH-NH₂; PR₃: H-(PR)₃HHHHHH-NH₂; PR₂: H-(PR)₂HHHHHH-NH₂. 96-well microplates (Corning Incorporated, Corning, USA) were coated with dipeptide repeat protein peptides at a concentration of 50 μg/ml in coating buffer (15 mM Na₂CO₃, 35 mM NaHCO₃, pH 9.42). Non-specific binding sites were blocked for 1 h at room temperature with PBS/0.1% Tween®-20 containing 2% BSA (Sigma-Aldrich, Buchs, Switzerland). Primary antibodies were diluted to the indicated concentrations and incubated 1 h at room temperature, followed by incubation with a donkey anti-human IgG Fcγ-specific antibody conjugated with HRP (Jackson ImmunoResearch Laboratories, Inc., West Grove, USA). Binding was determined by measurement of HRP activity in a standard colorimetric assay. EC₅₀ values were estimated by non-linear regression using GraphPad Prism software (San Diego, USA).

GP6: H-(GP)6HHHHHH-NH2 = target: T2, GP6: H-(GP)6HHHHHH-NH2; experiment: as above
T2 peptide: H-GPGPGPGPGPGPHHHHHH-NH2
From the text: as §1

GP5: H-(GP)5HHHHHH-NH2 [1] = target: T3, GP5: H-(GP)5HHHHHH-NH2; experiment: as above
T3 peptide: H-GPGPGPGPGPHHHHHH-NH2
From the text: as §1

GA10: H-(GA)10HHHHHH-NH2 = target: T4, GA10: H-(GA)10HHHHHH-NH2 (C-terminal amide); experiment: indirect ELISA, His-tagged peptide coated at 50 ug/ml, antibody titrated [also D00024 FIG. 7F]
T4 peptide: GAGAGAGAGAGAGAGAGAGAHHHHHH
From the text: as §1

GA4: H-(GA)4HHHHHH-NH2 = target: T5, GA4: H-(GA)4HHHHHH-NH2; experiment: as above
T5 peptide: H-GAGAGAGAHHHHHH-NH2
From the text: as §1

GA3: H-(GA)3HHHHHH-NH2 = target: T6, GA3: H-(GA)3HHHHHH-NH2; experiment: as above
T6 peptide: H-GAGAGAHHHHHH-NH2
From the text: as §1

GA2: H-(GA)2HHHHHH-NH2 = target: T7, GA2: H-(GA)2HHHHHH-NH2; experiment: as above
T7 peptide: H-GAGAHHHHHH-NH2
From the text: as §1

[2] = target: T8, BSA-coupled (GP)15 DPR protein peptide (bovine, conjugated via a bifunctional linker (SMCC) to bovine serum albumin); experiment: indirect ELISA, BSA-coupled peptide coated, antibody titrated [also D00014 FIG. 3H]
T8 construct: also called BSA-(GP)15
Description: In brief, dipeptide repeat proteins were synthesized and purified by Schafer-N(Copenhagen, Denmark): (GA)₁₅: H-CHHHHHH(GA)₁₅-OH; (GP)₁₅: H-C(GP)₁₅-OH; (GR)₁₅: H-C(GR)₁₅-OH; (PA)₁₅: H-C(PA)₁₅-OH; (PR)₁₅: H—C(PR)₁₅-OH. DPR protein peptides were then conjugated via a bifunctional linker (SMCC) to bovine serum albumin (BSA). 96-well microplates (Corning Incorporated, Corning, USA) were coated with BSA-coupled or -uncoupled dipeptide repeat protein peptides at a concentration of either 5 μg/ml or 20 μg/ml in coating buffer (15 mM Na₂CO₃, 35 mM NaHCO₃, pH 9.42). Non-specific binding sites were blocked for 1 h at room temperature with PBS/0.1% Tween®-20 containing 2% BSA (Sigma-Aldrich, Buchs, Switzerland). Primary antibodies were diluted to the indicated concentrations and incubated 1 h at room temperature, followed by incubation with a donkey anti-human IgG Fcγ-specific antibody conjugated with HRP (Jackson ImmunoResearch Laboratories, Inc., West Grove, USA). Binding was determined by measurement of HRP activity in a standard colorimetric assay. EC₅₀ values were estimated by non-linear regression using GraphPad Prism software (San Diego, USA).

GP5: H-(GP)5HHHHHH-NH2 [3] = target: T3, GP5: H-(GP)5HHHHHH-NH2; experiment: indirect ELISA, His-tagged peptide coated at 50 ug/ml, antibody titrated [also D00027 FIG. 7N]
From the text: as §1

GP4: H-(GP)4HHHHHH-NH2 = target: T9, GP4: H-(GP)4HHHHHH-NH2; experiment: as above
T9 peptide: H-GPGPGPGPHHHHHH-NH2
From the text: as §1

GP2: H-(GP)2HHHHHH-NH2 = target: T10, GP2: H-(GP)2HHHHHH-NH2; experiment: as above
T10 peptide: H-GPGPHHHHHH-NH2
From the text: as §1

T8 sequence (peptide, as listed by the source limits assumed, chain 1 of 2): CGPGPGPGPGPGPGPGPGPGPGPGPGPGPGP
T8 sequence (P02769 25-607 limits assumed, chain 2 of 2): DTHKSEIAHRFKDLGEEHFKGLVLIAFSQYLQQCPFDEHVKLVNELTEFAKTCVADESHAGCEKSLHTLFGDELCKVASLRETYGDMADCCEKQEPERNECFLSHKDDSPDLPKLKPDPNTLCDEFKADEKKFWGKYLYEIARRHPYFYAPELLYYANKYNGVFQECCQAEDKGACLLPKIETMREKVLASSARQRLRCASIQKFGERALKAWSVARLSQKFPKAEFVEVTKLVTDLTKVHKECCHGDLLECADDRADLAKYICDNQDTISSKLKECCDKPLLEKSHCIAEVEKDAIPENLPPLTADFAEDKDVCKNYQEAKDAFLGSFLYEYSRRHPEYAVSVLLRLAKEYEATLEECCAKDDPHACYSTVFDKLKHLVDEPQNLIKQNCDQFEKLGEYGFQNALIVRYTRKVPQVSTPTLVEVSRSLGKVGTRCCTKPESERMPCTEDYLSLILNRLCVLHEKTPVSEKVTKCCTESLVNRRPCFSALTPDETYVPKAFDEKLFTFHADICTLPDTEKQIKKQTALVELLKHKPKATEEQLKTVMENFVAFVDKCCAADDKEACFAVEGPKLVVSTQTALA

B1: NI-308.5G2 (antibody, V domains shown)
VH: EVQLVQSGADLRNPGASVTVSCTASGYHFADNAINWLRQAPGQRLEWMGWINIYSGNTKYSQNFQGRVTFTRNTSASTAFMHLRSLRSEDTAVYFCARDPDSSGYYLPYFDYWGQGTLVTVSS
VL: DIQLTQSPDSLTLSLGERATINCKSSQSVFYNSNNKNYLAWYQQKPGQPPKLLMYWASTRESGVTDRFSGSGSGTDFTLTITNLQAEDVAVYYCQQFYSSPLTFGGGTKVEIK
notes: Recombinant complete human IgG1, kappa
EC50 (GP10: H-(GP)10HHHHHH-NH2): 0.00094 µM
EC50 (GP6: H-(GP)6HHHHHH-NH2): 0.0268 µM
EC50 (GP5: H-(GP)5HHHHHH-NH2 [1]): > 0.2 µM

B2: NI-308.15O7 (antibody, V domains shown)
VH: QVQLVESGGGVVQPGRSLRLSCAASGFTFSNHAMHWVRQAPGKGLEWVAVISYDGENTYYADSIEGRFTISRDNFKNTLFLQMYSLTADDTAMYFCARGGRRGHFTSYYLDYWGQGTLVTVSS
VL: CDIQMTQSPSSLSASVGDRVTITCRASQNIDKYLNWYQQIPGKAPKLLIYAASSLHSGVPSRFSGSGSGTDFSLTISSLQPEDFAIYYCQQSYSSFRTFGQGTKLEIK
EC50 (GA10: H-(GA)10HHHHHH-NH2): 0.00037 µM
binding result (GA4: H-(GA)4HHHHHH-NH2): no binding (tested: about 4x10^5 pM (last point))
binding result (GA3: H-(GA)3HHHHHH-NH2): no binding (tested: about 4x10^5 pM (last point))
binding result (GA2: H-(GA)2HHHHHH-NH2): no binding (tested: about 4x10^5 pM (last point))

B3: NI-308.46E9 (antibody, V domains shown)
VH: QVQLQESGPGLVKPSETLSLTCTVSGASISGSTYYWGWIRQPPGKGLEYIGRIYYSGSTYYNPSLKSRATISVDTSKNQLSLTLSSVTAADTAVYYCVRPFYAGSGNSPFDYWGQGTLVTVSS
VL: CEIVLTQSPATVSVSPGERATLSCRASQSVSTNLAWYQQKPGQPPRLLIYGASTRATGIPARFSGSGSGAEFTLTISSLQSEDFVVYYCQQYNNWPPAFGGGTKVEIK
notes: as for B1
EC50 [2]: 0.0121 µM
binding result (GP5: H-(GP)5HHHHHH-NH2 [3]): no binding (tested: about 4x10^5 pM (last point))
binding result (GP4: H-(GP)4HHHHHH-NH2): no binding (tested: about 4x10^5 pM (last point))
binding result (GP2: H-(GP)2HHHHHH-NH2): no binding (tested: about 4x10^5 pM (last point))
